± gives the uncertainty stated by the source.
Experiment: protein stability index of a GFP-peptide fusion (yeast GPS) (PSI 1-4); higher = more stable; sorted into four equal gates, so the index is relative within each strain
Procedure, shortened: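 Plasmids in a pooled yeast library fused tiled 17-residue yeast protein peptides downstream of GFP and also expressed Cherry. Mid-log cultures grown without leucine were sorted into four equal gates by GFP/Cherry fluorescence ratio. Each gate's plasmids were PCR-amplified and Illumina-sequenced, and reads were matched to strains by barcodes. The protein stability index is derived by multiplying each gate's read frequency by its gate number and summing the results.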

Sequence	protein stability index (doa10∆)	protein stability index (pdr5∆)	protein stability index (san1∆)	protein stability index (ubr1∆)
FREWQYFKLSITSFDQD [POP8]	1.94 ± 0.052	2.53 ± 0.06	2.52 ± 0.061	2.51 ± 0.045
LKPDLNKITNQGVTCLH [NAS6]	2.36 ± 0.11	2.05 ± 0.052	3.13 ± 0.079	2.38 ± 0.059
MSQYQSTMKENKDLSEL [YIL149C/MLP2]	3 ± 0.16	3.12 ± 0.11	–	2.76 ± 0.092
ELGEKKNEKLKFQETLL [ISW2]	2.86 ± 0.096	2.7 ± 0.1	2.85 ± 0.11	2.88 ± 0.12
LPFQRLVREIAQDFKTD [HHT1]	1.93 ± 0.066	2.48 ± 0.061	2.48 ± 0.073	2.35 ± 0.074
KNVNIEDITEPKPDKPS [ESC2]	2.96 ± 0.094	3.1 ± 0.099	2.51 ± 0.1	2.94 ± 0.13
LNSLTNLLSKRNQEKKM [SNM1]	2.89 ± 0.078	2.86 ± 0.074	2.69 ± 0.083	2.7 ± 0.063
FGNTSTSSAPAQNQGMF [YGL172W/NUP49]	3.3 ± 0.15	3.4 ± 0.24	–	–
LYHHTTKTILSGTDGST [SRP72]	3.04 ± 0.068	2.82 ± 0.051	2.49 ± 0.088	2.83 ± 0.043
PVYATIGVETGSEPLIQ [PRP28]	2.84 ± 0.066	3.1 ± 0.076	2.92 ± 0.064	2.86 ± 0.12
KPNLNYFKSILLNKNTG [SWI1]	2.17 ± 0.058	2.19 ± 0.044	1.76 ± 0.066	1.75 ± 0.038
DADGDIDMGEDKENVPV [DPB4]	3.12 ± 0.17	3.29 ± 0.13	3.01 ± 0.15	3.66 ± 0.13
VSLVAEATSNTNSEDKL [MED4]	2.84 ± 0.12	3.03 ± 0.078	2.84 ± 0.082	2.65 ± 0.1
EQEDIIEKTESVDKKVD [SWI3]	3.04 ± 0.07	3.02 ± 0.081	3.14 ± 0.041	2.99 ± 0.094
KRCVGVILGDANSSTIR [RPN8]	2.85 ± 0.042	2.77 ± 0.051	2.82 ± 0.061	2.94 ± 0.039
QRIIKELSIRFPQYKLT [ARP7]	1.9 ± 0.058	1.67 ± 0.089	2.12 ± 0.081	1.7 ± 0.047
EISKKDFVRKGGLQKGK [SIR3]	2.38 ± 0.11	1.91 ± 0.083	1.98 ± 0.11	1.95 ± 0.092
STDKLVQCHGSFATATC [SIR2]	2.72 ± 0.066	2.67 ± 0.048	2.48 ± 0.063	2.76 ± 0.037
VRMRLAQLTHSLRRIRD [MED8]	1.45 ± 0.041	2.04 ± 0.063	1.49 ± 0.087	1.91 ± 0.049
LRQLASYYSREQDALFI [RPN1]	1.7 ± 0.045	1.8 ± 0.046	1.63 ± 0.08	1.81 ± 0.042
DEYLGSHTDQPANVLLV [NNF1]	3.57 ± 0.25	–	–	2.92 ± 0.13
TGKTLLAKAVAATIGAN [RPT4]	1.46 ± 0.074	1.75 ± 0.084	1.68 ± 0.16	2.08 ± 0.13
PLSDLKKRSQAKMNAKT [RPC82]	3.21 ± 0.08	3.4 ± 0.081	3.05 ± 0.066	3.32 ± 0.045
GEQIIVHPVNEREPVPL [RRP45]	2.85 ± 0.12	3.35 ± 0.12	–	2.9 ± 0.17
NDWQMLEMLKPCVEDGF [RPB2]	2.79 ± 0.09	3.22 ± 0.21	3.06 ± 0.12	2.68 ± 0.099
ITLLTRQRELLIAHQRS [GRR1]	2.18 ± 0.039	2.14 ± 0.038	2.01 ± 0.045	1.89 ± 0.029

Sequence	protein stability index (doa10∆)	protein stability index (pdr5∆)	protein stability index (san1∆)	protein stability index (ubr1∆)
LILAGQVKVKGQLGEMA [YCS4]	3.49 ± 0.1	3.35 ± 0.097	3.12 ± 0.069	2.87 ± 0.072
ESMDFLVLADAFDIELS [YCS4]	2.32 ± 0.039	2.82 ± 0.043	2.64 ± 0.055	2.64 ± 0.039
INLTQTYGISVVDVALK [NUT1]	2.24 ± 0.077	1.91 ± 0.054	1.76 ± 0.1	2.55 ± 0.038
DVVTREYTINLHKRLHG [RPL31A]	2.62 ± 0.12	2.55 ± 0.09	2.66 ± 0.069	1.71 ± 0.067
AKTFIDLESSSPELKAD [RPS7B]	3.03 ± 0.086	3.4 ± 0.077	3.29 ± 0.085	3.17 ± 0.085
PNDSNDEKVTILVDSLT [SWI1]	2.67 ± 0.057	2.81 ± 0.065	3.01 ± 0.071	3.06 ± 0.042
MLKYRRLFIGDQNNKKM [SNF2]	2.62 ± 0.097	2.82 ± 0.073	2.47 ± 0.094	2.63 ± 0.057
QTLSSHLEALQPLFSTV [PGD1]	1.96 ± 0.031	1.97 ± 0.037	2.2 ± 0.052	2.49 ± 0.034
DVIATEPQGAVTHMDQI [SMD3]	3.03 ± 0.073	2.83 ± 0.084	2.28 ± 0.11	2.47 ± 0.088
KANEKKESDESKSAFSF [YJL041W/NSP1]	2.95 ± 0.099	3.4 ± 0.07	3.18 ± 0.042	3.12 ± 0.043
NEVIDKLKNENTDLKDI [PCI8]	2.87 ± 0.066	3.04 ± 0.053	3.01 ± 0.048	3.13 ± 0.041
EEAPAPTPAASAPAPAA [FAS2]	2.8 ± 0.095	2.95 ± 0.076	2.85 ± 0.091	3.02 ± 0.1
RFRKAQCPIIERLTNSL [RPS5]	2.32 ± 0.2	2.82 ± 0.26	–	2.07 ± 0.21
CKLFLADVFTDDDLFET [YCG1]	3.03 ± 0.08	3.06 ± 0.051	3.03 ± 0.048	2.59 ± 0.038
DNKIDIYQIHIPYAAKL [RPB2]	3.16 ± 0.082	2.5 ± 0.11	3.15 ± 0.092	2.92 ± 0.063
IPGMSNMMNQVGEEETS [SRP54]	–	–	2.14 ± 0.29	–
EAKDAIIELENINAKME [YIL149C/MLP2]	3.06 ± 0.091	3.12 ± 0.099	3.02 ± 0.08	2.84 ± 0.088
FHSEISPDSTVNRSVVV [YAR002W/NUP60]	1.75 ± 0.11	1.76 ± 0.052	1.76 ± 0.13	2.16 ± 0.059
FESLPLKSAENSGKQQY [SWP82]	3.17 ± 0.063	3.3 ± 0.057	3.01 ± 0.055	3.2 ± 0.056
QQQLQQNSKEKNGLGLN [MED2]	2.5 ± 0.29	3.26 ± 0.12	2.42 ± 0.26	2.96 ± 0.13
IQDSNGDVKNMEDVKIQ [SWI3]	2.86 ± 0.071	2.8 ± 0.091	2.41 ± 0.1	2.94 ± 0.061
AFNDSCVNLSLFDARFE [SRB8]	3.11 ± 0.09	3.15 ± 0.059	3.39 ± 0.091	3.14 ± 0.051
ENMWPFSYQEVEFKLPK [CDC53]	1.83 ± 0.048	2.19 ± 0.058	1.34 ± 0.076	2.47 ± 0.035
IATDGGRICRPLIIVSD [RET1]	2.01 ± 0.046	2.1 ± 0.037	1.73 ± 0.06	2.14 ± 0.038
AGADRLQQGMRGAWGKP [RPL10]	3.41 ± 0.12	3.25 ± 0.13	2.95 ± 0.12	3.31 ± 0.086
DNLFGETESSVSNNEAN [SWI3]	3.55 ± 0.16	2.92 ± 0.089	–	2.89 ± 0.083

From the supplement of paper PMC9732359
